The text below walks through data of IntAct's records for PubMed 16501113.

B1: Probable early E4 11 kDa protein (Human adenovirus C serotype 5 (HAdV-5)), P04489 (parent)
chain: MIRCLRLKVEGALEQIFTMAGLNIRDLLRDILRRWRDENYLGMVEGAGMFIEEIHPEGFSLYVHLDVRAVCLLEAIVQHLTNAIICSLAVEFDHATGGERVHLIDLHFEVLDNLLE

One assay covers variants of B1. The settings on record: with PML.
With MIRCLRLKVEGALEQIFTMAGLNIRDLLRDILRRWRDENYLGMVEGAGMFIEEIHPEGFSLYVHLDVRAVCLLAAIVQHLTNAIICSLAVEFDHATGGERVHLIDLHFEVLDNLLE [E74A], the “effect of a mutation on the interaction” value was “decreasing interaction”.

For the variant MIRALRLKVEGALEQIFTMAGLNIRDLLRDILRRWRDENYLGMVEGAGMFIEEIHPEGFSLYVHLDVRAVCLLEAIVQHLTNAIICSLAVEFDHATGGERVHLIDLHFEVLDNLLE [C4A], the “effect of a mutation on the interaction” value was “decreasing interaction”.

Turning to MIRCLRLKVAGALEQIFTMAGLNIRDLLRDILRRWRDENYLGMVEGAGMFIEEIHPEGFSLYVHLDVRAVCLLEAIVQHLTNAIICSLAVEFDHATGGERVHLIDLHFEVLDNLLE [E10A], the “effect of a mutation on the interaction” value is “decreasing interaction”.

For the variant MIRCLRLKVEGALEQIFTMAGLNIRDLLRDILRRWRDENYLGMVEGAGMFIEEIHPEGFSLYVHLDVRAVCLLEAIVQHLTAAIICSLAVEFDHATGGERVHLIDLHFEVLDNLLE [N82A], the “effect of a mutation on the interaction” value is recorded as “disrupting interaction”.

The next assay covers variants of B1. As to conditions: with PML. The source holds these as a separate data set.
Turning to MIRCLRLKVEGALEQIFTMAGLNIRDLLRDILRRWRDENYLGMVEGAGMFIEEIHPEGFSLYVHLDVRAVCLLEAIVQHLTNAIICSLAVEFDHATGGERVHAIDLHFEVLDNLLE [L103A], the “effect of a mutation on the interaction” value was “disrupting interaction”.
